This passage reports stoichiometry N (HER2 per MEDI4276 (2:1)) and stoichiometry N (HER2 per MEDI4276 (5:3)) results from publication PMC5986207.

In the assay the target is human HER2 extracellular domain, soluble, His-tagged (human). The experiment in a line: AUC; multisignal sedimentation velocity (MSSV), 4:1 molar loading of HER2 to antibody (5.8:1.4 μM), PBS, 20 °C, 42,000 rpm, UV 280 and 250 nm and interference, SEDPHAT.

The substance “MEDI4276, anti-HER2 biparatopic, monospecific, tetravalent antibody (trastuzumab scFv on the N terminus of the 39S heavy chain) (bispecific antibody)” displayed a stoichiometry N (HER2 per MEDI4276 (2:1)) of 2 and a stoichiometry N (HER2 per MEDI4276 (5:3)) of 1.67.
